In one assay the target is T1, human IL-33 (human, UniProt O95760 112-270, limits assumed).
T1 sequence (looked up): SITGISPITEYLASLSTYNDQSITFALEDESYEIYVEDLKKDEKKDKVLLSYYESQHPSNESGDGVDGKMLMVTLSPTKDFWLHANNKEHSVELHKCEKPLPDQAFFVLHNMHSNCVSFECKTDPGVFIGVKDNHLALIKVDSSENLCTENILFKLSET
The assay can be described thus: cell-based or functional assay.

The target of a further assay is T2, cyno IL-33 (cynomolgus monkey, UniProt A0A2K5W3I1 112-269).
T2 sequence: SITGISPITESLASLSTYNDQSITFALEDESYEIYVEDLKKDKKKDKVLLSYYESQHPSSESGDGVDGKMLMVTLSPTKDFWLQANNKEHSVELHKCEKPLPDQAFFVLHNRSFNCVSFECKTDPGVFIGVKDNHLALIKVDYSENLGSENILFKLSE
Put plainly: cell-based or functional assay.

Assay [1] has as its target T3, cyno IL-33 (His-tagged) (cynomolgus monkey, UniProt A0A2K5W3I1 112-269).
T3 construct: not shown: His tag
T3 sequence: T2 sequence
Put plainly: SPR Biacore T200, antibody captured on anti-rat Fc, His-tagged IL-33 analyte, 25 C, 1:1 Langmuir. The procedure:
(§1) The binding kinetics of top anti-IL-33 antibodies were measured using SPR on a BIACORE® T200 instrument (GE Healthcare). A CM5 Series S sensorchip was coated with anti-rat Fc (Jackson) to create a capture surface. Antibody binding was measured to human, cyno, rat, mouse and oxidized IL-33 (His-tagged) using a concentration series starting with 50 nM with 1:3 dilutions. Sensorgrams for binding of cytokine were recorded using an injection time of 2 min with a flow rate of 30 μl/min, at a temperature of 25° C., and with a running buffer of 10 mM HEPES, pH 7.4, 150 mM NaCl, 3 mM EDTA, and 0.005% TWEEN®20. After injection, disassociation of the IL-33 from the antibody was monitored for 10 min in running buffer. The surface was regenerated between binding cycles with a 30μ injection of 10 mM glycine HCl pH 1.7. After subtraction of a blank which contained running buffer only, sensorgrams observed for cytokine binding to anti-IL-33 antibody were analyzed using a 1:1 Langmuir binding model with software supplied by the manufacturer to calculate the kinetics and binding constants.

A further assay has as its target T4, mouse IL-33 (His-tagged) (mouse, UniProt Q8BVZ5 109-266).
T4 construct: also called murine IL-33; not shown: His tag
T4 sequence (looked up): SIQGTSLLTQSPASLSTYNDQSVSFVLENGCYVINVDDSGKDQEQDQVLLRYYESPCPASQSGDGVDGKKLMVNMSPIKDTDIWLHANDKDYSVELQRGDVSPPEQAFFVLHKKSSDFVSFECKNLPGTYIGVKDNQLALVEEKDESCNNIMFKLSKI
Described as above. As for the experimental part:
as §1

In a further assay the target is T5, rat IL-33 (His-tagged) (rat, UniProt Q66H70 109-264, limits assumed).
T5 construct: not shown: His tag
T5 sequence (looked up): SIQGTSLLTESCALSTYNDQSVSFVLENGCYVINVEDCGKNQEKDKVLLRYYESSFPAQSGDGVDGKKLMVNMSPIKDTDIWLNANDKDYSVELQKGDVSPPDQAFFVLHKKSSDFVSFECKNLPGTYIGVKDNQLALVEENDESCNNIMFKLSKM
Described as above. As for the experimental part: as §1

In assay [2] the target is T6, human IL-33 (His-tagged) (human, UniProt O95760 112-270, limits assumed).
T6 construct: not shown: His tag
T6 sequence (looked up): T1 sequence (looked up)
The assay is described as above. The procedure:
as §1

For assay [3], the target named is T3, cyno IL-33 (His-tagged). Put plainly: SPR Biacore 8k, Fab amine-coupled to CM5 chip, His-tagged IL-33 analyte, 35 C, 1:1 Langmuir. As for the experimental part:
(§2) The binding kinetics of the 1E1v8 Fab were measured using SPR on a BIACORE® 8k instrument (GE Healthcare). 1E1v8 Fab was directly immobilized on 4 different flow cells of a CM5 Series S sensorchip at low density using amine coupling. Antibody fragment binding was measured to human and cyno IL-33 (His-tagged) using a concentration series starting with 50 nM with 1:3 dilutions. Sensorgrams for binding of IL-33 were recorded using an injection time of 2 min with a flow rate of 100 μl/min, at a temperature of 25° C. or 35° C., and with a running buffer of 10 mM HEPES, pH 7.4, 150 mM NaCl, 3 mM EDTA, and 0.005% TWEEN®20. After injection, disassociation of the IL-33 from the antibody was monitored for 30 min in running buffer. The surface was regenerated between binding cycles with a 30 μl injection of 10 mM glycine HCl pH 1.7. After subtraction of a blank which contained running buffer only, sensorgrams observed for cytokine binding to anti-IL-33 antibody were analyzed using a 1:1 Langmuir binding model with software supplied by the manufacturer to calculate the kinetics and binding constants.
Background: SPR reads the build-up and loss of mass on a sensor chip optically.

The target of assay [4] is T6, human IL-33 (His-tagged). The description is as above. As for the experimental part:
as §2

The target in assay [5] is T3, cyno IL-33 (His-tagged). Put plainly: SPR Biacore 8k, Fab amine-coupled to CM5 chip, His-tagged IL-33 analyte, 25 C, 1:1 Langmuir. The procedure:
as §2

Assay [6] addresses T6, human IL-33 (His-tagged). The assay is described as above. The procedure: as §2

Residue numbers refer to the chain shown, from its start.

This is an account of results in patent US20210284725A1 (Genentech, published 2021).

B1: rat anti-human IL-33 hybridoma antibody 1E1 (antibody, V domains shown)
VH: EVQLVESGGGLVQPGTSLKLSCLASGFTFNNYWMTWIRQAPGKGLEWIASITYTGGGTYYPDSVKGRFTISRDDAKSTLYLQMNSLRSEDTATYYCTRANYYYNTYGGFPYWGQGTLVTVSS
VL: DIQMTQSPASLSASLGETVSIECLASEGFSNDLAWYQQKSGKSPQLLIYAASRLQDGVPSRFSGSGSGTRFSLKISGMQPEDEADYFCQQGSKYPLTFGSGTKLEIK
notes: Purified rat hybridoma IgG; also called clone 1E1; hybridoma derived clone 1E1
The Kd is the free concentration of one partner at which half of the binding sites on the other are occupied at equilibrium, for simple one-to-one binding. The low end stands for a tighter complex, the high end for a looser complex. For orientation: koff means the rate constant with which the complex falls apart. A low value points to a long-lived complex. Usually kon stands for the second-order rate constant of association. Read a low kon as slower complex formation. Turning to B1, the “IC50 (M), IL-33 neutralization activity, HEK-BLUE IL-33 cells (SEAP reporter), human IL-33 at 160 pM” value in the assay with human IL-33 came to 3.6e-11 M. Besides, in the assay with cyno IL-33, the “IC50 (M), IL-33 neutralization activity, HEK-BLUE IL-33 cells (SEAP reporter), cyno IL-33 at 300 pM” value was found to be 1.6e-10 M. Besides, the dissociation constant Kd with cyno IL-33 (His-tagged) [1] was determined as 0.0392 nM; in the assay with mouse IL-33 (His-tagged) it was 37.4 nM; with rat IL-33 (His-tagged) it was 1.6 nM; with human IL-33 (His-tagged) [2], 0.021 nM. In addition, the off-rate (koff) with cyno IL-33 (His-tagged) [1] is 2.24e-05 s⁻¹; with mouse IL-33 (His-tagged) it was 0.00213 s⁻¹; with rat IL-33 (His-tagged), 0.000219 s⁻¹; with human IL-33 (His-tagged) [2], 2.28e-05 s⁻¹. The kon with cyno IL-33 (His-tagged) [1] worked out at 570000 M⁻¹ s⁻¹; in the assay with mouse IL-33 (His-tagged) it was 56800 M⁻¹ s⁻¹; in the assay with rat IL-33 (His-tagged), 140000 M⁻¹ s⁻¹; with human IL-33 (His-tagged) [2], 1.08e+06 M⁻¹ s⁻¹.

B2: 1E1v8 Fab (Fab, V domains shown)
VH: B1 VH with T16G, K19R, L23A, I48V, T78S, S88A, T93V
VL: DIQMTQSPSSLSASVGDRVTITCLASEGFSNDLAWYQQKPGKSPKLLIYAASRLQDGVPSRFSGSGSGTDFTLTISSLQPEDFATYFCQQGSKYPLTFGGGTKVEIK
notes: also called 1E1v8 human Fab; anti-IL-33 1E1v8 Fab
Take B2: the equilibrium dissociation constant (Kd) in the assay with cyno IL-33 (His-tagged) [3] is 0.0345 nM; with human IL-33 (His-tagged) [4], 0.0148 nM; with cyno IL-33 (His-tagged) [5], 0.0223 nM; in the assay with human IL-33 (His-tagged) [6], 0.0147 nM. Besides, the dissociation rate constant (koff) in the assay with cyno IL-33 (His-tagged) [3] stood at 1.82e-05 s⁻¹; with human IL-33 (His-tagged) [4] it was 1.26e-05 s⁻¹; with cyno IL-33 (His-tagged) [5], 7.85e-06 s⁻¹; with human IL-33 (His-tagged) [6], 9.99e-06 s⁻¹. Also, the association rate constant (kon) with cyno IL-33 (His-tagged) [3] amounted to 527000 M⁻¹ s⁻¹; with human IL-33 (His-tagged) [4], 858000 M⁻¹ s⁻¹; in the assay with cyno IL-33 (His-tagged) [5], 354000 M⁻¹ s⁻¹; with human IL-33 (His-tagged) [6] it was 684000 M⁻¹ s⁻¹.
